Measurements published in FireProtDB (doi:10.1021/bi00005a026).

B1: Subtilisin-chymotrypsin inhibitor-2A, P01053 (parent)
chain: MSSVEKKPEGVNTGAGDRHNLKTEWPELVGKSVEEAKKVILQDKPEAQIIVLPVGTIVTMEYRIDRVRLFVDKLDNIAQVPRVG

Variants of: B1
Conditions: Hordeum vulgare, pH 6.3, Thermal, Fluorescence, phosphate 10 mM, reversible: yes, structure 2CI2, whole UniProt chain shown; for ddG of mutation (higher = less stable): 46.6 °C

| Variant | ddG of mutation (higher = less stable) [kcal/mol] | Tm [°C] | change of melting temperature, mutant - wild type (higher = more stable) [°C] | unfolding enthalpy (van 't Hoff) [kcal/mol] |
| --- | --- | --- | --- | --- |
| I40V | 1.3 | 31.8 | -14.8 | 26.3 |
| S32A | 0.89 | 38.2 | -8.4 | 35.4 |
| F70L | 2.11 | 32.5 | -14.1 | 27.5 |
| K37A | 0.49 | 34 | -12.6 | 27.2 |
| I50V | -0.08 | 48 | 1.4 | 50.9 |
| I50A | 2.12 | – | – | – |
| I49V | 1.11 | 39.4 | -7.2 | 27.8 |
| I77V | -0.19 | 47.7 | 1.1 | 34.6 |
| E34N | 0.7 | 42.8 | -3.8 | 36.1 |
| V54A | 0.63 | 43.8 | -2.8 | 40.5 |
| V54T | 1.03 | – | – | – |
| K38A | -0.23 | 41.4 | -5.2 | 34.8 |
| K38G | 0.97 | 35.8 | -10.8 | 37.6 |
| V39A | 0.48 | 41.9 | -4.7 | 30 |
| E34A E35A | 0.76 | – | – | – |
| L28A | 2.68 | 24.1 | -22.5 | 34.6 |
| S32A E34A E35A | 1.67 | – | – | – |
| T23A | 0.85 | 43.7 | -2.9 | – |
| V71A | 1.95 | 29.8 | -16.8 | 33.5 |
| L52A | 2.37 | 37.5 | -9.1 | 42.5 |
| L52V | 0.5 | 46.1 | -0.5 | 37.3 |
| K44A | – | 40.8 | -5.8 | 24.6 |
